± gives the uncertainty stated by the source.
Experiment: protein stability index of a GFP-peptide fusion (yeast GPS) (PSI 1-4); higher = more stable; sorted into four equal gates, so the index is relative within each strain
Method in brief: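 The protein stability index of a peptide was calculated by multiplying its read frequency in each gate by that gate's number and adding the products. The peptides were tiled 17-residue stretches of yeast proteins, fused downstream of GFP on a Cherry-expressing plasmid and carried in yeast as a pooled library. Mid-log cultures in leucine-free medium were sorted into four equal gates by GFP/Cherry ratio, and each gate's plasmids were PCR-amplified and Illumina-sequenced.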

Sequence	protein stability index (doa10∆)	protein stability index (pdr5∆)	protein stability index (san1∆)	protein stability index (ubr1∆)
QVEYALEAIKQGSVTVG [PRE5]	2.92 ± 0.12	3.33 ± 0.21	3.14 ± 0.17	3.09 ± 0.18
QVIKNEVCAKMPNIELY [SSN2]	2.83 ± 0.076	2.81 ± 0.058	2.7 ± 0.074	2.35 ± 0.06
QVLFQGLIYSFNEENGE [POP1]	3.1 ± 0.13	3.24 ± 0.18	2.77 ± 0.26	3.02 ± 0.18
QVLLDEEYKQLVKDRKF [RPO21]	3.07 ± 0.085	3.28 ± 0.06	3.15 ± 0.14	2.82 ± 0.1
QVLMDINTLNGGSSDTA [GAL11]	3.29 ± 0.074	3.22 ± 0.072	3.15 ± 0.061	3.1 ± 0.061
QWSRIVLQNVFKLVSTP [MED1]	1.4 ± 0.039	1.24 ± 0.043	1.23 ± 0.08	1.34 ± 0.038
RAFQKQPHIFNNPKVKT [RPS11A]	2.33 ± 0.052	2.48 ± 0.043	2.59 ± 0.044	2.21 ± 0.028
RAFTKKVSSASAAASES [RPL16B]	2.42 ± 0.065	2.19 ± 0.052	2.16 ± 0.065	1.85 ± 0.054
RAGQRGYHSRTSINHKI [RPL3]	2.85 ± 0.13	3.23 ± 0.14	3 ± 0.096	3.5 ± 0.12
RAGQRTRFKAVVVVGDS [RPS2]	2.07 ± 0.056	2.2 ± 0.063	2.28 ± 0.088	2.29 ± 0.048
RAHGRINKYESSPSHIE [RPL17A]	2.9 ± 0.07	3.4 ± 0.077	2.99 ± 0.08	3.17 ± 0.061
RALRIETGNFSWASEGI [RPS8A]	3.15 ± 0.036	3.15 ± 0.037	3.11 ± 0.027	3.052 ± 0.026
RAQEEVKRIQSVPLVIG [RPT3]	3.52 ± 0.13	3.16 ± 0.15	3.04 ± 0.11	3.21 ± 0.066
RCGRRSFHVQKKTCSSC [RPL37A]	2.3 ± 0.04	2.56 ± 0.061	2.47 ± 0.048	2.39 ± 0.038
RDHEKDTYRTLMEEIES [YIL149C/MLP2]	3.31 ± 0.044	3.38 ± 0.043	3.414 ± 0.031	3.26 ± 0.037
RDMTYSAPIYVDIEYTR [RET1]	2.17 ± 0.092	1.98 ± 0.083	1.79 ± 0.14	1.81 ± 0.069
RDQGNDSLNDDLNKENK [YIL149C/MLP2]	3.23 ± 0.18	–	3.01 ± 0.15	3.32 ± 0.063
RDVRDQAAGGLSIRLTN [RPN8]	2.89 ± 0.087	2.85 ± 0.095	2.89 ± 0.097	2.6 ± 0.071
RDYSKEILGINLANEQP [SIR4]	2.71 ± 0.048	3.04 ± 0.044	3.07 ± 0.039	3.02 ± 0.036
REIESLIAEETNNKKLL [SMC3]	2.78 ± 0.18	2.86 ± 0.082	3.01 ± 0.11	2.92 ± 0.15
RELARIKKYASVVRVLV [RPL3]	1.32 ± 0.09	1.17 ± 0.12	1.13 ± 0.18	1.2 ± 0.11
RELEQIKPKIALQDKEI [SNF12]	3.15 ± 0.18	3.35 ± 0.17	–	3.05 ± 0.13
RELLNPRYTYHTIFSDV [YML031W/NDC1]	3.01 ± 0.053	3.05 ± 0.052	2.71 ± 0.045	2.93 ± 0.058
RENNFRVASDTVHEMEE [SMC4]	–	3.36 ± 0.28	3.19 ± 0.13	2.95 ± 0.27
REQHIDTICQSIQEQIQ [SNF5]	3.12 ± 0.068	3.25 ± 0.11	3.25 ± 0.053	3.3 ± 0.068
RFEKAVKHVFGKTIVVK [SMC3]	2.76 ± 0.21	3.58 ± 0.2	–	3.5 ± 0.16
RFKNSVKWYHFDHNDKK [PRE7]	2.32 ± 0.057	2.76 ± 0.064	2.69 ± 0.043	2.62 ± 0.043

From the supplement of paper PMC9732359
